Measurements published in the supplement of paper PMC7877785.
± gives the uncertainty stated by the source.

Assay: self-splicing fitness, log relative to wild type (ln ratio); higher = more splicing; Tetrahymena group I intron in knt gene, E. coli kanamycin selection, DiMSum; sequences stand for … in CUCUCU…GGAGGGAAAAGUUAUCAGGCAUGCACCUGGUAGCUAGUCUUUAAACCAAUAGAUUGCAUCGGUUUAAAAGGCAAGACCGUCAAAUUGCGGGAAAGGGGUCAACAGCCGUUCAGUACCAAGUCUCAGGGGAAACUUUGAGAUGGCCUUGCAAAGGGUAUGGUAAUAAGCUGACGGACAUGGUCCUAACCACGCAGCCAAGUCCUAAGUCAACAGAUCUUCUGUUGAUAUGGAUGCAGUUCACAGACUAAAUGUCGGUCGGGGAAGAUGUAUUCUUCUCAUAAGAUAUAGUCGGACCUCUCCUUAAUGGGAGCUAGCGGAUGAAGUGAUGCAACACUGGAGCCGCUGGGAACUAAUUUGUAUGCGAAAGUAUAUUGAUUAGUUUUGGAGUACUCGUGGUCG
Summary of the method: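 Pooled colonies went to amplicon sequencing on an Illumina HiSeq 2500 after six replicate transformations. The plates were LB agar with 100 μg/mL carbenicillin, 50 μM IPTG and 0.2% rhamnose, with or without 25 μg/mL kanamycin, incubated overnight at 37°C or 30°C. The E. coli BL21(DE3) library had all eight P1ex-region intron nucleotides randomised, the intron placed in the knt kanamycin-resistance gene on pET-22b(+). DiMSum fitness is the error-weighted combination of replicate fold changes, kanamycin against none, normalised to wild type.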

Sequence: GCUCAGCAAUAUUACGCGGC
- self-splicing fitness (ln) (30 °C): -3.83 ± 0.47
- self-splicing fitness (ln) (37 °C): -1.46 ± 0.26

Sequence: GCUCAGCAAUAUUACGGCAG
- self-splicing fitness (ln) (30 °C): -2.91 ± 0.22
- self-splicing fitness (ln) (37 °C): -2.82 ± 0.38

Sequence: GCUCAGCAAUAUUACGGCUA
- self-splicing fitness (ln) (30 °C): -0.707 ± 0.13
- self-splicing fitness (ln) (37 °C): -0.758 ± 0.12

Sequence: GCUCAGCAAUAUUACGGGCG
- self-splicing fitness (ln) (30 °C): -1.61 ± 0.071
- self-splicing fitness (ln) (37 °C): -1.22 ± 0.085

Sequence: GCUCAGCAAUAUUACGGGGA
- self-splicing fitness (ln) (30 °C): -0.491 ± 0.054
- self-splicing fitness (ln) (37 °C): 0.325 ± 0.075

Sequence: GCUCAGCAAUAUUACGGUGA
- self-splicing fitness (ln) (30 °C): -3.42 ± 0.25
- self-splicing fitness (ln) (37 °C): -1.69 ± 0.16

Sequence: GCUCAGCAAUAUUACGUAGC
- self-splicing fitness (ln) (30 °C): -1.23 ± 0.12
- self-splicing fitness (ln) (37 °C): -1.43 ± 0.16

Sequence: GCUCAGCAAUAUUACGUCCC
- self-splicing fitness (ln) (30 °C): -0.208 ± 0.24
- self-splicing fitness (ln) (37 °C): 0.272 ± 0.24

Sequence: GCUCAGCAAUAUUACGUCGG
- self-splicing fitness (ln) (30 °C): -2.71 ± 0.14
- self-splicing fitness (ln) (37 °C): -0.555 ± 0.15

Sequence: GCUCAGCAAUAUUACGUCUA
- self-splicing fitness (ln) (30 °C): -0.844 ± 0.1
- self-splicing fitness (ln) (37 °C): -0.494 ± 0.097

Sequence: GCUCAGCAAUAUUACGUGGA
- self-splicing fitness (ln) (30 °C): -1.91 ± 0.1
- self-splicing fitness (ln) (37 °C): -1.63 ± 0.12

Sequence: GCUCAGCAAUAUUACGUUAA
- self-splicing fitness (ln) (30 °C): -1.32 ± 0.17
- self-splicing fitness (ln) (37 °C): -1.28 ± 0.16

Sequence: GCUGAGCAAUAUUACGAACG
- self-splicing fitness (ln) (30 °C): -1.53 ± 0.18
- self-splicing fitness (ln) (37 °C): -1.12 ± 0.23

Sequence: GCUGAGCAAUAUUACGAACU
- self-splicing fitness (ln) (30 °C): -2.49 ± 0.33
- self-splicing fitness (ln) (37 °C): -0.576 ± 0.21

Sequence: GCUGAGCAAUAUUACGAGUU
- self-splicing fitness (ln) (30 °C): -2.73 ± 0.13
- self-splicing fitness (ln) (37 °C): -0.949 ± 0.12

Sequence: GCUGAGCAAUAUUACGCAGG
- self-splicing fitness (ln) (30 °C): -1.66 ± 0.13
- self-splicing fitness (ln) (37 °C): -1.56 ± 0.15

Sequence: GCUGAGCAAUAUUACGCAGU
- self-splicing fitness (ln) (30 °C): -4.98 ± 0.45
- self-splicing fitness (ln) (37 °C): -3.31 ± 0.34

Sequence: GCUGAGCAAUAUUACGCCAG
- self-splicing fitness (ln) (30 °C): -3.69 ± 0.25
- self-splicing fitness (ln) (37 °C): -2.73 ± 0.41

Sequence: GCUGAGCAAUAUUACGCCGA
- self-splicing fitness (ln) (37 °C): -1.38 ± 0.32

Sequence: GCUGAGCAAUAUUACGCGAU
- self-splicing fitness (ln) (30 °C): -2.78 ± 0.17
- self-splicing fitness (ln) (37 °C): -2.59 ± 0.25

Sequence: GCUGAGCAAUAUUACGCGGC
- self-splicing fitness (ln) (37 °C): -1.22 ± 0.41

Sequence: GCUGAGCAAUAUUACGCUAG
- self-splicing fitness (ln) (30 °C): -3.28 ± 0.16
- self-splicing fitness (ln) (37 °C): -1.27 ± 0.14

Sequence: GCUGAGCAAUAUUACGGAAA
- self-splicing fitness (ln) (30 °C): -2.86 ± 0.25
- self-splicing fitness (ln) (37 °C): -2.63 ± 0.32

Sequence: GCUGAGCAAUAUUACGGCCG
- self-splicing fitness (ln) (30 °C): -3.94 ± 0.32
- self-splicing fitness (ln) (37 °C): -2.37 ± 0.39

Sequence: GCUGAGCAAUAUUACGGGAU
- self-splicing fitness (ln) (30 °C): -2.39 ± 0.14
- self-splicing fitness (ln) (37 °C): -1.34 ± 0.13

Sequence: GCUGAGCAAUAUUACGGGCC
- self-splicing fitness (ln) (30 °C): -2.39 ± 0.32
- self-splicing fitness (ln) (37 °C): -2.27 ± 0.39

Sequence: GCUGAGCAAUAUUACGGGGC
- self-splicing fitness (ln) (30 °C): -3.02 ± 0.24
- self-splicing fitness (ln) (37 °C): -3.85 ± 0.42

Sequence: GCUGAGCAAUAUUACGUAGU
- self-splicing fitness (ln) (30 °C): -2.86 ± 0.16
- self-splicing fitness (ln) (37 °C): -1.71 ± 0.15

Sequence: GCUGAGCAAUAUUACGUAUC
- self-splicing fitness (ln) (30 °C): -2.37 ± 0.13
- self-splicing fitness (ln) (37 °C): 0.164 ± 0.1

Sequence: GCUGAGCAAUAUUACGUUCU
- self-splicing fitness (ln) (30 °C): -0.944 ± 0.12
- self-splicing fitness (ln) (37 °C): -0.758 ± 0.15

Sequence: GCUGAGCAAUAUUACGUUUU
- self-splicing fitness (ln) (30 °C): -4.08 ± 0.26
- self-splicing fitness (ln) (37 °C): -3.21 ± 0.22

Sequence: GCUUAGCAAUAUUACGAAAC
- self-splicing fitness (ln) (30 °C): -1.22 ± 0.16
- self-splicing fitness (ln) (37 °C): -0.448 ± 0.24

Sequence: GCUUAGCAAUAUUACGCACA
- self-splicing fitness (ln) (30 °C): -1.02 ± 0.14
- self-splicing fitness (ln) (37 °C): 0.3 ± 0.15

Sequence: GCUUAGCAAUAUUACGCACU
- self-splicing fitness (ln) (30 °C): -0.857 ± 0.11
- self-splicing fitness (ln) (37 °C): 0.197 ± 0.12

Sequence: GCUUAGCAAUAUUACGCAUA
- self-splicing fitness (ln) (30 °C): -1.58 ± 0.14
- self-splicing fitness (ln) (37 °C): -0.612 ± 0.11

Sequence: GCUUAGCAAUAUUACGCCGU
- self-splicing fitness (ln) (30 °C): -2.31 ± 0.21
- self-splicing fitness (ln) (37 °C): -0.553 ± 0.18

Sequence: GCUUAGCAAUAUUACGCCUU
- self-splicing fitness (ln) (30 °C): -2.7 ± 0.21
- self-splicing fitness (ln) (37 °C): 0.179 ± 0.19

Sequence: GCUUAGCAAUAUUACGCGCG
- self-splicing fitness (ln) (30 °C): -0.0422 ± 0.094
- self-splicing fitness (ln) (37 °C): -0.149 ± 0.13
